Our source for the protein stability index values is the supplement of paper PMC10567573.

First the molecules themselves.
B1: PDZK1 (parent)
chain: RETASLKLLPHQPRIVEMKKGSNG
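Also: lentivirally expressed fusions sorted by FACS into six bins by GFP to DsRed ratio, PSI derived from sequencing read proportions per bin multiplied by bin number.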

Variants of B1 are the subject of this series. Description: protein stability index of a GFP-peptide fusion (GPS, HEK-293T) (PSI 1-6); higher = more stable. Conditions: c terminus: a fixed tail appended.
In the case of RETASLPLLPHQPRIVEMKKGSNG, the protein stability index came out at 4.67.
In the case of RETASLLLLPHQPRIVEMKKGSNG it was 3.98; in that of RETASLQLLPHQPRIVEMKKGSNG, 4.74.
As to RETASLTLLPHQPRIVEMKKGSNG, the protein stability index turned out to be 4.66.
Take RETASLKLLAHQPRIVEMKKGSNG: the protein stability index turned out to be 3.5.
Consider RETASLKLLWHQPRIVEMKKGSNG, for which the protein stability index amounted to 2.82.
Take RETASLKLLSHQPRIVEMKKGSNG: the protein stability index was found to be 3.48.
RETASLKLLEHQPRIVEMKKGSNG: the protein stability index came to 3.14.
As for RETASLKLLQHQPRIVEMKKGSNG, the protein stability index turned out to be 3.02.
As to RETASLKLLDHQPRIVEMKKGSNG, the protein stability index was determined as 3.21.
Take RETASLKLLLHQPRIVEMKKGSNG: the protein stability index was 2.88.
In the case of RETASLKLLKHQPRIVEMKKGSNG it was 3.62; in that of RETASLKLLMHQPRIVEMKKGSNG, 2.89; in that of RETASLKLLIHQPRIVEMKKGSNG, 2.43.
With RETASLKLLYHQPRIVEMKKGSNG, the protein stability index was found to be 2.99.
For the variant RETASLKLLTHQPRIVEMKKGSNG, the protein stability index was 2.98.
As for RETASLKLLVHQPRIVEMKKGSNG, the protein stability index worked out at 2.76.
For the variant RETASLKLLGHQPRIVEMKKGSNG, the protein stability index is 3.38.
In the case of RETASLKLLFHQPRIVEMKKGSNG it was 2.08; in that of RETASLKLLHHQPRIVEMKKGSNG, 2.54.
Turning to RETASLKLLRHQPRIVEMKKGSNG, the protein stability index was 3.56.
Turning to RETASLKLLPHVPRIVEMKKGSNG, the protein stability index was determined as 3.09.
With RETASLKLLPHRPRIVEMKKGSNG, the protein stability index worked out at 3.65.
Take RETASLKLLPHLPRIVEMKKGSNG: the protein stability index was determined as 3.27.
Consider RETASLKLLPHGPRIVEMKKGSNG, for which the protein stability index was 3.62.
Consider RETASLKLLPHHPRIVEMKKGSNG, for which the protein stability index was found to be 3.97.
Take RETASLKLLPHFPRIVEMKKGSNG: the protein stability index turned out to be 2.97.
In the case of RETASLKLLPHEPRIVEMKKGSNG, the protein stability index came out at 2.88.
In the case of RETASLKLLPHMPRIVEMKKGSNG it was 3.38; in that of RETASLKLLPHCPRIVEMKKGSNG, 3.27.
For the variant RETASLKLLPHTPRIVEMKKGSNG, the protein stability index is 3.26.
In the case of RETASLKLLPHSPRIVEMKKGSNG it was 4.05.
As for RETASLKLLPHPPRIVEMKKGSNG, the protein stability index is 4.03.
For RETASLKLLPHWPRIVEMKKGSNG, the protein stability index worked out at 3.2.
As for RETASLKLLPHAPRIVEMKKGSNG, the protein stability index is 3.54.
Take RETASLKLLPHDPRIVEMKKGSNG: the protein stability index was 3.3.
In the case of RETASLKLLPHIPRIVEMKKGSNG, the protein stability index stood at 2.85.
Take RETASLKLLPHKPRIVEMKKGSNG: the protein stability index amounted to 3.66.
The figure for RETASLKLLPHNPRIVEMKKGSNG is 3.84; for RETASTKLLPHQPRIVEMKKGSNG it is 3.63; for RETASYKLLPHQPRIVEMKKGSNG it is 3.56.
For RETASSKLLPHQPRIVEMKKGSNG, the protein stability index was 4.01.
With RETASNKLLPHQPRIVEMKKGSNG, the protein stability index stood at 4.
For the variant RETASRKLLPHQPRIVEMKKGSNG, the protein stability index came out at 3.37.
For the variant RETASEKLLPHQPRIVEMKKGSNG, the protein stability index was 3.95.
For the variant RETASVKLLPHQPRIVEMKKGSNG, the protein stability index was found to be 3.54.
Regarding RETASQKLLPHQPRIVEMKKGSNG, the protein stability index is 3.9.
The figure for RETASWKLLPHQPRIVEMKKGSNG is 2.98.
In the case of RETASFKLLPHQPRIVEMKKGSNG it was 3.15; in that of RETASKKLLPHQPRIVEMKKGSNG, 3.64.
Take RETASIKLLPHQPRIVEMKKGSNG: the protein stability index is 3.48.
As for RETASGKLLPHQPRIVEMKKGSNG, the protein stability index came to 3.69.
For the variant RETASDKLLPHQPRIVEMKKGSNG, the protein stability index is 3.53.
In the case of RETASHKLLPHQPRIVEMKKGSNG, the protein stability index came out at 3.56.
The figure for RETASMKLLPHQPRIVEMKKGSNG is 3.55; for RETASAKLLPHQPRIVEMKKGSNG it is 3.66.
With RETASPKLLPHQPRIVEMKKGSNG, the protein stability index came out at 4.18.
Consider RETASLKFLPHQPRIVEMKKGSNG, for which the protein stability index is 3.65.
RETASLKRLPHQPRIVEMKKGSNG: the protein stability index amounted to 3.89.
Take RETASLKVLPHQPRIVEMKKGSNG: the protein stability index turned out to be 3.92.
Regarding RETASLKALPHQPRIVEMKKGSNG, the protein stability index turned out to be 3.56.
For RETASLKMLPHQPRIVEMKKGSNG, the protein stability index amounted to 2.75.
For the variant RETASLKILPHQPRIVEMKKGSNG, the protein stability index worked out at 3.34.
Regarding RETASLKWLPHQPRIVEMKKGSNG, the protein stability index stood at 3.21.
In the case of RETASLKSLPHQPRIVEMKKGSNG, the protein stability index turned out to be 3.7.
On to RETASLKDLPHQPRIVEMKKGSNG, for which the protein stability index came to 3.4.
For RETASLKNLPHQPRIVEMKKGSNG, the protein stability index turned out to be 2.96.
As to RETASLKCLPHQPRIVEMKKGSNG, the protein stability index was 3.38.
For the variant RETASLKHLPHQPRIVEMKKGSNG, the protein stability index was found to be 2.81.
RETASLKELPHQPRIVEMKKGSNG: the protein stability index worked out at 3.77.
Regarding RETASLKYLPHQPRIVEMKKGSNG, the protein stability index is 3.17.
Consider RETASLKKLPHQPRIVEMKKGSNG, for which the protein stability index was found to be 3.63.
As for RETASLKQLPHQPRIVEMKKGSNG, the protein stability index worked out at 4.16.
For the variant RETASLKGLPHQPRIVEMKKGSNG, the protein stability index was found to be 3.42.
For the variant RETASLKPLPHQPRIVEMKKGSNG, the protein stability index came out at 4.25.
As for RETASLKLLPTQPRIVEMKKGSNG, the protein stability index is 3.73.
For RETASLKLLPWQPRIVEMKKGSNG, the protein stability index worked out at 3.29.
For RETASLKLLPRQPRIVEMKKGSNG, the protein stability index is 3.35.
As to RETASLKLLPDQPRIVEMKKGSNG, the protein stability index is 2.35.
In the case of RETASLKLLPGQPRIVEMKKGSNG it was 3.38.
Turning to RETASLKLLPNQPRIVEMKKGSNG, the protein stability index was 3.38.
In the case of RETASLKLLPVQPRIVEMKKGSNG, the protein stability index worked out at 2.59.
In the case of RETASLKLLPMQPRIVEMKKGSNG, the protein stability index was 2.75.
On to RETASLKLLPPQPRIVEMKKGSNG, for which the protein stability index is 3.25.
Take RETASLKLLPLQPRIVEMKKGSNG: the protein stability index is 3.14.
The figure for RETASLKLLPIQPRIVEMKKGSNG is 3.59.
The figure for RETASLKLLPKQPRIVEMKKGSNG is 3.53; for RETASLKLLPEQPRIVEMKKGSNG it is 3.08.
On to RETASLKLLPFQPRIVEMKKGSNG, for which the protein stability index is 3.27.
As for RETASLKLLPCQPRIVEMKKGSNG, the protein stability index was 3.47.
Take RETASLKLLPSQPRIVEMKKGSNG: the protein stability index came to 3.52.
The figure for RETASLKLLPQQPRIVEMKKGSNG is 3.23.
As to RETASLKLLPAQPRIVEMKKGSNG, the protein stability index came to 2.57.
RETASLKLLPYQPRIVEMKKGSNG: the protein stability index was determined as 3.5.
